Assay [1] deals with NA7-HFNef (HIV-1 (NA7)). The assay is described as follows: co-IP; membrane-associated protein fraction of co-transfected 293T cells, solubilised in Buffer B plus 0.5% IGEPAL CA-630; anti-HA monoclonal antibody precipitates the HF-tagged Nef, untagged Nef detected by Western blot; fractional dimerization (FD) estimated from band densities assuming strict dimers and a binomial distribution.

Assay [2] concerns the target SF2-HFNef (HIV-1 (SF2)) (UniProt P03407). The assay is described as above.
Sequence of UniProt P03407 (P03407 whole entry): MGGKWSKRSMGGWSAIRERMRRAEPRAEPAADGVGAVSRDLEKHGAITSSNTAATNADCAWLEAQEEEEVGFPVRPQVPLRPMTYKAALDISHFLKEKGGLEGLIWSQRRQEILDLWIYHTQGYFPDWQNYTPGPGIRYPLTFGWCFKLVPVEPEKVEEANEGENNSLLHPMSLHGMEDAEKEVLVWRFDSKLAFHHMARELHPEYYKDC
The target of assay [3] is NA7-HFNef (HIV-1 (NA7)). Description: co-IP; cytosolic (soluble, high speed supernatant) fraction of co-transfected 293T cells in Buffer B; anti-HA monoclonal antibody precipitates the HF-tagged Nef, untagged Nef detected by Western blot; FD estimated from band densities.
Assay [4] has as its target SF2-HFNef (HIV-1 (SF2)) (UniProt P03407). The assay is described as above.
Assay [5] concerns the target SIV_(MAC239)-HFNef (SIVmac239). The assay is described as follows: co-IP; membrane-associated protein fraction of co-transfected 293T cells, solubilised in Buffer B plus 0.5% IGEPAL CA-630; anti-HA monoclonal antibody precipitates the HF-tagged Nef, untagged Nef detected by Western blot; fractional dimerization (FD) estimated from band densities assuming strict dimers and a binomial distribution.

As to NA7Nef (natural protein), the fractional dimerization (FD) was 0.52 in assay [1], 0.48 in assay [2], 0.35 in assay [3] and 0.23 in assay [4].

For the substance SIV_(MAC239)Nef (natural protein), the fractional dimerization (FD) in assay [5] is 0.37.

Values taken from PMC2955668.
